Experimental data reported in paper PMC4821239, “Molecular architecture of the Dam1 complex–microtubule interaction” (Open Biology, 2016).

T1: Dam1 (budding yeast, UniProt P53267 1-343)
T1 construct: Dam1, subunit of the budding yeast Dam1 complex; Subunit inside the recombinant 10-subunit complex; also called Dam1 subunit; source: expressed and purified as part of the Dam1 complex as described [3]
T1 sequence (looked up): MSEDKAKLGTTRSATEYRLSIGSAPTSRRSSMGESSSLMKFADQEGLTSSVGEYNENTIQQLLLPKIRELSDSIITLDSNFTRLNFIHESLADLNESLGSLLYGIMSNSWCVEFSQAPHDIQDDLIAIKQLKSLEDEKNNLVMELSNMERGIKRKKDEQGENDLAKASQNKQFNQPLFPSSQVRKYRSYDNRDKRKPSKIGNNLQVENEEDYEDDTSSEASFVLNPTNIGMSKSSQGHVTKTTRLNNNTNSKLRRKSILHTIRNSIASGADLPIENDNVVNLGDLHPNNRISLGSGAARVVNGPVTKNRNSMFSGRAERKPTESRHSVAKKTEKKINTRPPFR

T2: Dad2 (budding yeast, UniProt P36162 1-133)
T2 construct: Dad2, subunit of the budding yeast Dam1 complex; Subunit inside the recombinant 10-subunit complex; source: expressed and purified as part of the Dam1 complex as described [3]
T2 sequence (looked up): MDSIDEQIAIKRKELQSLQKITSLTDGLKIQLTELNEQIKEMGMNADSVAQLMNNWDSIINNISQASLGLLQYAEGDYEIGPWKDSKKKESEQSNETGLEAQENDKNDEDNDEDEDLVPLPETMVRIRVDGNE

T3: Spc34 (budding yeast, UniProt P36131 1-295)
T3 construct: Spc34, subunit of the budding yeast Dam1 complex; Subunit inside the recombinant 10-subunit complex; source: expressed and purified as part of the Dam1 complex as described [3]
T3 sequence (looked up): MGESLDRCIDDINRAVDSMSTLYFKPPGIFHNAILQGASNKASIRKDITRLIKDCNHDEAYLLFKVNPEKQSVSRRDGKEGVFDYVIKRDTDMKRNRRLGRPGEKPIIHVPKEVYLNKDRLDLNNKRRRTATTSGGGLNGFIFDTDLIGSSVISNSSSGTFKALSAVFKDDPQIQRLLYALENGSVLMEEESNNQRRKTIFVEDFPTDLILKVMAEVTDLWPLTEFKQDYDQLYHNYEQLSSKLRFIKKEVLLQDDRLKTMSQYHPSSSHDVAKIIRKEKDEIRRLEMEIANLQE

T4: Spc19 (budding yeast, UniProt Q03954 1-165)
T4 construct: Spc19, subunit of the budding yeast Dam1 complex; Subunit inside the recombinant 10-subunit complex; also called Sp19; source: expressed and purified as part of the Dam1 complex as described [3]
T4 sequence (looked up): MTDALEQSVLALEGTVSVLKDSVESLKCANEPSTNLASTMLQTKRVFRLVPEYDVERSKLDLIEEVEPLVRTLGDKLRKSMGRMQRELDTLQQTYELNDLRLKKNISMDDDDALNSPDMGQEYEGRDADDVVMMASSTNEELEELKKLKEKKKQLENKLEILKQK

T5: Ask1 (budding yeast, UniProt P35734 1-292)
T5 construct: Ask1, subunit of the budding yeast Dam1 complex; Subunit inside the recombinant 10-subunit complex; source: expressed and purified as part of the Dam1 complex as described [3]
T5 sequence (looked up): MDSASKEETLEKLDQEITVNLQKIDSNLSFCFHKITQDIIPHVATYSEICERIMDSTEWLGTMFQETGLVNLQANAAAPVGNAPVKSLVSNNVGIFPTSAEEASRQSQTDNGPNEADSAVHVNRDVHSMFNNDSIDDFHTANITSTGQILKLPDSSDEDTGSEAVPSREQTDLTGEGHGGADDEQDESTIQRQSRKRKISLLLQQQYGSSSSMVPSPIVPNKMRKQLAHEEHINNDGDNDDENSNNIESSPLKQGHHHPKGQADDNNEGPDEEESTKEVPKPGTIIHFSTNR

B1: Hsk3 (natural protein, budding yeast, UniProt P69852 1-69, looked up)
chain: MNANKQRQYNQLAHELRELQTNLQETTKQLDIMSKQCNENLVGQLGKVHGSWLIGSYIYYMEQMLGKTQ
notes: Hsk3, subunit of the budding yeast Dam1 complex; Subunit inside the recombinant 10-subunit complex; also called his-tagged Hsk3; source: expressed and purified as part of the Dam1 complex as described [3]; mutant complexes by Ni-NTA and Superose 6
B2: Dad4 (natural protein, budding yeast, UniProt P69851 1-72, looked up)
chain: MENPHEQVQANILSRIIGNVKRLNESVAILNQELVTINNRNKNLEIMGAICDNYHSSVQFNLEATNNKKPPL
notes: Dad4, subunit of the budding yeast Dam1 complex; Subunit inside the recombinant 10-subunit complex; source: expressed and purified as part of the Dam1 complex as described [3]

Experiments:
[1] = target: T1, Dam1; assay: cross-linking; BS3, Dam1 complex at 0.3 mg/ml in BRB80, room temperature 40-60 min, digested in solution, mass spectrometry; some links may be between oligomerizing complexes; details: both partners purified
[2] = target: T2, Dad2; assay: affinity purification with mass spectrometry; mutant Dam1 complexes purified by the His tag on Hsk3 (Ni-NTA), then Superose 6 size-exclusion chromatography; proteins identified by mass spectrometry; details: partners not purified
[3] = target: B2; assay: as above; details: partners not purified
[4] = target: T3, Spc34; assay: cross-linking; BS3, Dam1 complex at 0.3 mg/ml in BRB80, room temperature 40-60 min, digested in solution, mass spectrometry; some links may be between oligomerizing complexes; details: both partners purified
[5] = target: T4, Spc19; assay: as above; details: both partners purified
[6] = target: T5, Ask1; assay: cross-linking; EDC with Sulfo-NHS, Dam1 complex assembled on taxol-stabilized microtubules in BRB80, pellet washed, room temperature 1 h, digested in solution, mass spectrometry; details: both partners purified
[7] = target: T2, Dad2; assay: cross-linking; BS3, Dam1 complex at 0.05 mg/ml in solution; cross-linked species (approx. 110, 220 and 440 kDa) separated by SDS-PAGE, bands cut out, in-gel trypsin digestion, mass spectrometry; details: both partners purified

| binding result [1] | binding result [2] | binding result [3] | binding result [4] | binding result [5] | binding result [6] | binding result [7] | Binder |
| --- | --- | --- | --- | --- | --- | --- | --- |
| binds | binds | binds |  |  |  |  | B1 |
| binds |  |  | binds | binds | binds | binds | B2 |
